Results: patent US20060286112A1
Residue numbers refer to the chain shown, from its start.

B1: 6.17 (antibody, V domains shown)
VH: EVQLVQSGAEVKKPGESLRISCKGSGYSVSSYWIGWVRQMPGKGLEWMGIIYPGDSDTRYSPSFQGQVTISADKSISTAFLQWISLKASDTAMYYCARLQGDCSGGSCYGHFDYWGQGTLVTVS
VL: EIVLTQSPGTLSLSPGERATLSCRASQTISSGYLAWYQQKPAQAPRLLIYVASRRATGIPDRFSGSGSGTDFTLTISRLEPEDFAVYYCQQYGSSSWTFGQGTTVEIK
B2: 6.18 (antibody, V domains shown)
VH: B1 VH with S30T, F80Y, I84S, S107T
VL: B1 VL with T28S, I29V, G32S, S94T
B3: 6.48 (antibody, V domains shown)
VH: B1 VH with Y114C
VL: DVVLTQSPLSLPVTLGQPASISCRSSQSLVNSDGDTYLSWFQQWPGQSPRRLFYEVSNWDSGVPDRFSGSGSGTDFTLKISRVEAEDVGVYYCMQGTHWLTFGGGTKVEIK
B4: 2.7 (antibody, V domains shown)
VH: EVQLVESGGGLVKPGGSLRLSCAASGFTFSNAWMSWVRQAPGKGLEWVGRIKRKTDGETTDYAAPVKGRFTISRDDSRNTLYLQMNSLKTEDTAVYYCTIYTYYYGMDVWGQGTTVTVSS
VL: DIQMTQSPSSLSASVGDRVTITCRASQSINNYLNWYQQKPGKAPKLLIYAASSLESGVPSRFSGSGSGTDFTLTISSLQPEDFATYYCQQSYSTPPTFGQGTKVEIK
B5: 2.19 (antibody, V domains shown)
VH: QVQLQESGPGLVKPSETLSLTCTVSGDSISSYYWSWIRQPPGKGLEWIGYVYYSGSTNYNPSLKSRVTMSVDTSKNQFSLKLSSVTAADTAVYYCARDLELYAFDIWGQGTMVTVSS
VL: EIVLTQFPGTLSLSPGERVTLSCRASQSVSSTYVVWYQQKPGQAPRLLIYGASSRATGIPDRFSGSGSGTDFTLTISRLEPEDFAVYYCQQHGSSPWTFGQGTKVEIK
B6: 10.1 (antibody, V domains shown)
VH: QVQLQQSGPGLVKPSETLSLTCTVSGASISSYYWSWIRQPAGKGLEWIGRIYASGSTNYNPSLKSRVTMSVDTSKSQFSLNLSSVTAADTAVYYCAREGWERLQDYYYYGLDVWGQGTTVTVSS
VL: B5 VL with F7S, V19A, S31R, T32N, V34L, V35A, Y37N, H92Y, W97L, Q101G
B7: 3.2 (antibody, V domains shown)
VH: QVQLVESGGGVVQPGRSLRLSCAASGFTFSSYGIHWVRQAPGKGLEWVAVIWYDGSDIYYADSVKGRFTISRDNSKNTLYLQMNSLRAEDTALYYCARESSGWTFDYWGQGTLVTVSS
VL: QSALTQPASVSGSPGQSITISCTGTSSDVGGYNYVSWYQQHPGKAPKLMIYEVSNRPSGISNRFSGSKSGNTASLTISGLQAEDEADYYCSSYTSSSTIIFGGGTKLTVL
B8: 2.11 (antibody, V domains shown)
VH: QVQLQESGPGLVKPSQTLSLTCTVSGGSINSGGYYWSWIRQHPGKGLEWIGYIFYSGSTYYNPSLKSRVNISVDTSKNQFSLKMSSVTAADTAVYYCARDQDGFDYWGQGTLVTVSS
VL: DIVMTQTPLSLPVTPGEPASISCRSSQSLLDSDDGNTYLDWYLQKPGQSPQLLIYTLSYRASGVPDRFSGSGSGTDFTLKISRVEAEDVGVYYCMQRIEFPWTFGQGTKVEIK
B9: 6.3 (antibody, V domains shown)
VH: QVLLQESGPGLVKPSQTLSLTCTVSGGSISSGGYYWSWIRQHPGKGLEWIGYINYSGSAYYNPSLKSRVTISVDTSKNQFSLKLSSVTAADTAVYYCARDHWLLRGFDYWGQGTLVTVSS
VL: DIVMTQTPLSLSVTPGQPASISCKSSQSLLHSDGKTYLYWYLQKPGQPPQLLIYEVSNRFSGVPDRFSGSGSGTDFTLKISRVEAEDVGVYYCMQSIQLPRTFGQGTKVEIK
B10: 2.25 (antibody, V domains shown)
VH: QVQLQQSGPGLVKPSQTLSLTCAISGDSVSSNSAAWNWIRQSPSRGLEWLGRTYYMSKWYNDYAVSVKSRITINPDTSKNQFSLQLNSVTPEDTAVYYCARARYCGGDCYDFDYWGQGTLVTVSS
VL: B4 VL with Q6H, N30S, N31I, Y32S, K42N, E55Q, V58I, Y92F, P96W
B11: 2.1 (antibody, V domains shown)
VH: QVQLQESGPGLVKPSQTLSLTCTVSGGSISSGGYYWSWIRQHPGKGLEWIGYIYNSGSTYYNPSLKSRGTISADTSKNQFSLKLSSVTAADTAVYYCARGSSSYYWYFDLWGRGTLVTVSS
VL: DIQMTQSPSSMSASVGDRVTITCRASQRISSNLNWYQQKPGKAPKFLIYGASSLQSGVPSRFSGSGSGTDFTLTISSLRPEDFATYYCQQSYSTPYTFGPGTKVDIK

These binders were tested against biotinylated I domain-GST (human) (UniProt P56199) (assay: competition: I domain-btn binding to immobilized collagen IV, streptavidin-HRP).

| Binder | IC50 [nM] |
| --- | --- |
| B1 | 7.6 |
| B2 | 3.3 |
| B3 | 6.1 |
| B4 | 2.4 |
| B5 | 3 |
| B6 | 3.1 |
| B7 | 1.6 |

What follows are binders tested on I domain-GST, recombinant GST fusion protein containing amino acids 127-340 of the human VLA-1 α1 subunit (human) (UniProt P56199) (assay: SPR, mAb captured on anti-human IgG, I domain-GST in solution, no Mg2+).
I domain-GST, recombinant GST fusion protein containing amino acids 127-340 of the human VLA-1 α1 subunit (human), sequence (P56199 151-364 limits assumed, form in doubt): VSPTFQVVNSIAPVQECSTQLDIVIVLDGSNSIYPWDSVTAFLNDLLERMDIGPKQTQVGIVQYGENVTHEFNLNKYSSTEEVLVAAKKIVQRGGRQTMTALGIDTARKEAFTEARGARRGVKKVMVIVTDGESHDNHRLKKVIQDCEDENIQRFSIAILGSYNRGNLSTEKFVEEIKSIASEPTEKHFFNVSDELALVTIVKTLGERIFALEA

| Binder | Kd [nM] | koff [s⁻¹] | kon [M⁻¹ s⁻¹] |
| --- | --- | --- | --- |
| B8 | 0.889 | 0.000208 | 234000 |
| B9 | 1.69 | 0.000243 | 144000 |
| B1 | 1.63 | 0.000154 | 94600 |
| B10 | 1.46 | 0.000111 | 75800 |
| B11 | 4.62 | 0.00211 | 456000 |
| B5 | 0.478 | 5.93e-05 | 124000 |
| B6 | 1.04 | 0.000173 | 166000 |

Each binder was assayed on I domain-GST, recombinant GST fusion protein containing amino acids 127-340 of the human VLA-1 α1 subunit (human) (UniProt P56199) (assay: SPR, mAb captured on anti-human IgG, I domain-GST in solution, 1 mM Mg2+).

| Binder | Kd [nM] | koff [s⁻¹] | kon [M⁻¹ s⁻¹] |
| --- | --- | --- | --- |
| B10 | 1.57 | 1.3e-05 | 8300 |
| B5 | 0.243 | 0.000131 | 538000 |
| B7 | 0.04 | 1.43e-05 | 354000 |

Each binder was assayed on I domain-GST, recombinant GST fusion protein containing amino acids 127-340 of the human VLA-1 α1 subunit (human) (UniProt P56199) (assay: competition: I domain-GST binding to immobilized collagen IV, anti-GST-HRP).

| Binder | IC50 [nM] |
| --- | --- |
| B1 | 12 |
| B2 | 7.6 |
| B3 | 9.8 |
| B4 | 6.4 |
| B5 | 7.4 |
| B6 | 5.5 |
| B7 | 3.2 |

Each binder was assayed on I domain-GST, recombinant GST fusion protein containing amino acids 127-340 of the human VLA-1 α1 subunit (human) (UniProt P56199) (assay: SPR, mAb captured on anti-human IgG, I domain-GST in solution, no Mg2+, titration screen (*)).

| Binder | Kd [nM] | koff [s⁻¹] | kon [M⁻¹ s⁻¹] |
| --- | --- | --- | --- |
| B2 | 0.574 | 7.08e-05 | 123000 |
| B4 | – | 8.22e-05 | 134000 |

What follows are binders tested on I domain-GST, recombinant GST fusion protein containing amino acids 127-340 of the human VLA-1 α1 subunit (human) (UniProt P56199) (assay: SPR, mAb captured on anti-human IgG, I domain-GST in solution, 1 mM Mg2+, titration screen (*)).

| Binder | Kd [nM] | koff [s⁻¹] | kon [M⁻¹ s⁻¹] |
| --- | --- | --- | --- |
| B8 | 0.025 | 8e-06 | 318000 |
| B1 | 0.255 | 0.000136 | 533000 |
| B2 | 0.138 | 7.2e-05 | 523000 |
| B3 | 0.216 | 0.000121 | 561000 |
| B4 | 0.117 | 3.77e-05 | 321000 |
| B6 | 0.068 | 3.1e-05 | 453000 |
